This note sets out measurements from paper PMC10051150, “Structure and Dynamics of Three Escherichia coli NfsB Nitro-Reductase Mutants Selected for Enhanced Activity with the Cancer Prodrug CB1954” (International Journal of Molecular Sciences, 2023).

B1: T41L/N71S NfsB (enzyme, Escherichia coli)
chain: MDIISVALKRHSTKAFDASKKLTPEQAEQIKTLLQYSPSSLNSQPWHFIVASTEEGKARVAKSAAGNYVFSERKMLDASHVVVFCAKTAMDDVWLKLVVDQEDADGRFATPEAKAANDKGRKFFADMHRKDLHDDAEWMAKQVYLNVGNFLLGVAALGLDAVPIEGFDAAILDAEFGLKEKGYTSLVVVPVGHHSVEDFNATLPKSRLPQNITLTEV
notes: Escherichia coli NfsB nitroreductase, 24 kDa subunit, expressed as the native protein; Expressed 'as the native proteins', so no tag is stated; Homodimer with one FMN per active site; also called double mutant; T41L/N71S mutant; source: E. coli BL21 (λDE3), pET11c, purified (Phenyl Sepharose, Q-Sepharose)
B2: T41Q/N71S/F124T/M127V NfsB (enzyme, Escherichia coli)
chain: MDIISVALKRHSTKAFDASKKLTPEQAEQIKTLLQYSPSSQNSQPWHFIVASTEEGKARVAKSAAGNYVFSERKMLDASHVVVFCAKTAMDDVWLKLVVDQEDADGRFATPEAKAANDKGRKFTADVHRKDLHDDAEWMAKQVYLNVGNFLLGVAALGLDAVPIEGFDAAILDAEFGLKEKGYTSLVVVPVGHHSVEDFNATLPKSRLPQNITLTEV
notes: Escherichia coli NfsB nitroreductase, 24 kDa subunit; also called quadruple mutant; T41Q/N71S/F124T/M127V mutant; source: initially purified from a UT5600 E. coli lysogen, later also recloned into pET11c; purified (Phenyl Sepharose, Q-Sepharose)
B3: T41Q/N71S/F124T NfsB (enzyme, Escherichia coli)
chain: MDIISVALKRHSTKAFDASKKLTPEQAEQIKTLLQYSPSSQNSQPWHFIVASTEEGKARVAKSAAGNYVFSERKMLDASHVVVFCAKTAMDDVWLKLVVDQEDADGRFATPEAKAANDKGRKFTADMHRKDLHDDAEWMAKQVYLNVGNFLLGVAALGLDAVPIEGFDAAILDAEFGLKEKGYTSLVVVPVGHHSVEDFNATLPKSRLPQNITLTEV
notes: Escherichia coli NfsB nitroreductase, 24 kDa subunit, expressed as the native protein; Expressed 'as the native proteins', so no tag is stated; Homodimer with one FMN per active site; also called triple mutant; T41Q/N71S/F124T mutant; source: E. coli BL21 (λDE3), pET11c, purified (Phenyl Sepharose, Q-Sepharose)

The series concerns the molecule itself. The experiment in a line: crystal structure; crystals from 10–18% PEG 4000, 50–200 mM sodium acetate buffer pH 4.6, 15 mM nicotinic acid (where present), 15% ethylene glycol; molecular replacement with PDB 1ICR; two subunits in the asymmetric unit.
With B1, the binding result is “binds”. Consider B2, for which the binding result is recorded as “binds”. For B3, the binding result is “binds”.
